Target: T1, PED/PEA-15 over-expressed in transgenic Tg_(Ped/pea-15) mice (UniProt Q15121 1-130)
T1 construct: PED/PEA-15 expressed from the transgene of Tg_(Ped/pea-15) mice; The precipitate from transgenic muscle holds the transgene's product together with the endogenous mouse protein; source: transgenic mice with ubiquitous over-expression of Ped/pea-15, tibialis skeletal muscle lysate
Test: co-IP; tibialis skeletal muscle lysate (0.5-1 mg) of Wt and Tg_(Ped/pea-15) mice, precleared with pre-immune serum, anti-PED/PEA-15 antibody overnight at 4°C, protein A sepharose, blot with anti-PLD1
Details: partners not purified

T1 sequence (Q15121 whole entry): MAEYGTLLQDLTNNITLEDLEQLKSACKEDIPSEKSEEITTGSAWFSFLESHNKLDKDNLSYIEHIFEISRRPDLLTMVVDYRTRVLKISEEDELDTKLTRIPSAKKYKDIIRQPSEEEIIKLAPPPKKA

B1: Phospholipase D1 (PLD1), endogenous in mouse skeletal muscle (enzyme, UniProt Q9Z280 1-1074, looked up)
chain: MSLKSETRVNTSTLQKIAADMSNLIENLDTRELHFEGEEVEYDASPGDPKAQEGCIPFSSIYNTQGFKEPNIQTYLSGCPIKAQVLEVERFTSTSRVPSINLYTIELTHGEFTWQVKRKFKHFQEFHRELLKYKAFIRIPIPTKRHTFRRQNVKEEPREMPSLPRSSENAIQEEQFFGRRKQLEDYLTKILKMPMYRNYHATTEFLDVSQLSFIHDLGPKGLEGMIMKRSGGHRIPGVNCCGHGRACYRWSKRWLIVKDSFLLYMKPDSGAIAFVLLVDKEFRVKVGRKETETKYGLRIDNLSRTLILKCNSYRHARWWGGAIEEFIRKHGADFLKDHRFGSYAALHENTLAKWYVNAKGYFEDIANAMEEASEEIFITDWWLSPEIFLKRPVVEGNRWRLDCILKRKAQQGVRIFIMLYKEVELALGINSEYSKRTLMRLHPNIKVMRHPDHVSSSVYLWAHHEKLVIIDQSVAFVGGIDLAYGRWDDNEHRLTDVGSVKRVTSGLSLGSLTAASVESMESLSLKDKHEFHKKEPISKIVDETDMKLKGIGKSRKFSKFSLYRQLHRHHLHNADSISSIDSTSSYFSHCRSHQNLIHGLKPHLKLFHPSSESEQGLTRHSTDTGSIRSVQTGVGELHGETRFWHGKDYCNFVFKDWVQLDKPFADFIDRYSTPRMPWHDIGSVVHGKAARDVARHFIQRWNFTKIMKPKYRSLSYPFLLPKSQATAHELRYQVPGAVPAKVQLLRSAADWSAGIKHHEESIHAAYIHVIENSKHYIYIENQFFISCADDKVVFNKVGDRIAQRILKAHREGQRYRVYIVIPLLPGFEGDISTGGGNALQAIMHFNYRTMCRGESSILEQLKPELGNKWINYISFCGLRTHAELEGNLVTELIYVHSKLLIADDNTVIIGSANINDRSMLGKRDSEMAVIVQDTETVPSVMDGKEYQAGRFARDLRLECFRLVLGYLSDPSEDLQDPVSDKFFKEIWVSTAARNATIYDKVFRCLPNDEVHNLIQLRDFINKPILAKEDALRAEEELRKIRGFLVQFPLYFLSEENLLPSVGTKEAIVPMEVWT
notes: Phospholipase D1, endogenous protein of mouse skeletal muscle; Detected by blot with an anti-PLD1 antibody in the anti-PED/PEA-15 precipitate; source: endogenous, tibialis skeletal muscle lysate of Wt and Tg_(Ped/pea-15) mice
fold increase of the co-precipitated interaction against Wt mice: 4 fold
